From paper PMC7588230, “Structural basis of αE-catenin–F-actin catch bond behavior” (eLife, 2020)

Each binder was assayed against F-actin (rabbit skeletal muscle actin, ADP-actin filaments) (rabbit, UniProt P68135 1-377) (assay: co-sedimentation; dilution series of ABD mixed with an equal volume of 4 μM F-actin, 30 min at room temperature, 20 mM HEPES pH 8.0, 150 mM NaCl, 1 mM DTT; pelleted at 140,717 x g for 20 min at 4°C; Coomassie bands quantified; fit with a Hill coefficient (W859A: one site-specific binding)). Details: both partners purified.

Row | Kd [nM] | Binder
1 | 700 | αE-catenin ABD 692–906 (domain or fragment) QEEKSKLDAEVSKWDDSGNDIIVLAKQMCMIMMEMTDFTRGKGPLKNTSDVISAAKKIAEAGSRMDKLGRTIADHCPDSACKQDLLAYLQRIALYCHQLNICSKVKAEVQNLGGELVVSGVDSAMSLIQAAKNLMNAVVQTVKASYVASTKYQKSQGMASLNLPAVSWKMKAPEKKPLVKREKQDETQTKIKRASQKKHVNPVQALSEFKAMDSI
2 | 500 | αE-catenin ABD 699–906 (domain or fragment) DAEVSKWDDSGNDIIVLAKQMCMIMMEMTDFTRGKGPLKNTSDVISAAKKIAEAGSRMDKLGRTIADHCPDSACKQDLLAYLQRIALYCHQLNICSKVKAEVQNLGGELVVSGVDSAMSLIQAAKNLMNAVVQTVKASYVASTKYQKSQGMASLNLPAVSWKMKAPEKKPLVKREKQDETQTKIKRASQKKHVNPVQALSEFKAMDSI
3 | 2000 | αE-catenin ABD 671–906 (domain or fragment) AIMAQLPQEQKAKIAEQVASFQEEKSKLDAEVSKWDDSGNDIIVLAKQMCMIMMEMTDFTRGKGPLKNTSDVISAAKKIAEAGSRMDKLGRTIADHCPDSACKQDLLAYLQRIALYCHQLNICSKVKAEVQNLGGELVVSGVDSAMSLIQAAKNLMNAVVQTVKASYVASTKYQKSQGMASLNLPAVSWKMKAPEKKPLVKREKQDETQTKIKRASQKKHVNPVQALSEFKAMDSI
4 | > 35000 | αE-catenin ABD 671–906 W859A (domain or fragment) AIMAQLPQEQKAKIAEQVASFQEEKSKLDAEVSKWDDSGNDIIVLAKQMCMIMMEMTDFTRGKGPLKNTSDVISAAKKIAEAGSRMDKLGRTIADHCPDSACKQDLLAYLQRIALYCHQLNICSKVKAEVQNLGGELVVSGVDSAMSLIQAAKNLMNAVVQTVKASYVASTKYQKSQGMASLNLPAVSAKMKAPEKKPLVKREKQDETQTKIKRASQKKHVNPVQALSEFKAMDSI
5 | 400 | αE-catenin ABD 696–906 (domain or fragment) SKLDAEVSKWDDSGNDIIVLAKQMCMIMMEMTDFTRGKGPLKNTSDVISAAKKIAEAGSRMDKLGRTIADHCPDSACKQDLLAYLQRIALYCHQLNICSKVKAEVQNLGGELVVSGVDSAMSLIQAAKNLMNAVVQTVKASYVASTKYQKSQGMASLNLPAVSWKMKAPEKKPLVKREKQDETQTKIKRASQKKHVNPVQALSEFKAMDSI
6 | 5000 | αE-catenin ABD 671–872 (domain or fragment) AIMAQLPQEQKAKIAEQVASFQEEKSKLDAEVSKWDDSGNDIIVLAKQMCMIMMEMTDFTRGKGPLKNTSDVISAAKKIAEAGSRMDKLGRTIADHCPDSACKQDLLAYLQRIALYCHQLNICSKVKAEVQNLGGELVVSGVDSAMSLIQAAKNLMNAVVQTVKASYVASTKYQKSQGMASLNLPAVSWKMKAPEKKPLVKR
7 | 2800 | αE-catenin ABD 699–868 (domain or fragment) DAEVSKWDDSGNDIIVLAKQMCMIMMEMTDFTRGKGPLKNTSDVISAAKKIAEAGSRMDKLGRTIADHCPDSACKQDLLAYLQRIALYCHQLNICSKVKAEVQNLGGELVVSGVDSAMSLIQAAKNLMNAVVQTVKASYVASTKYQKSQGMASLNLPAVSWKMKAPEKKP
8 | 8500 | αE-catenin ABD 666–906 (full length) (domain or fragment) GQSARAIMAQLPQEQKAKIAEQVASFQEEKSKLDAEVSKWDDSGNDIIVLAKQMCMIMMEMTDFTRGKGPLKNTSDVISAAKKIAEAGSRMDKLGRTIADHCPDSACKQDLLAYLQRIALYCHQLNICSKVKAEVQNLGGELVVSGVDSAMSLIQAAKNLMNAVVQTVKASYVASTKYQKSQGMASLNLPAVSWKMKAPEKKPLVKREKQDETQTKIKRASQKKHVNPVQALSEFKAMDSI
